From the supplement of paper PMC7877785
± gives the uncertainty stated by the source.

Assay: self-splicing fitness, log relative to wild type (ln ratio); higher = more splicing; Tetrahymena group I intron in knt gene, E. coli kanamycin selection, DiMSum; sequences stand for … in CUCUCU…GGAGGGAAAAGUUAUCAGGCAUGCACCUGGUAGCUAGUCUUUAAACCAAUAGAUUGCAUCGGUUUAAAAGGCAAGACCGUCAAAUUGCGGGAAAGGGGUCAACAGCCGUUCAGUACCAAGUCUCAGGGGAAACUUUGAGAUGGCCUUGCAAAGGGUAUGGUAAUAAGCUGACGGACAUGGUCCUAACCACGCAGCCAAGUCCUAAGUCAACAGAUCUUCUGUUGAUAUGGAUGCAGUUCACAGACUAAAUGUCGGUCGGGGAAGAUGUAUUCUUCUCAUAAGAUAUAGUCGGACCUCUCCUUAAUGGGAGCUAGCGGAUGAAGUGAUGCAACACUGGAGCCGCUGGGAACUAAUUUGUAUGCGAAAGUAUAUUGAUUAGUUUUGGAGUACUCGUGGUCG
Method in brief: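 Six replicate transformations of E. coli BL21(DE3) with a pET-22b(+) library were grown overnight at 37°C or 30°C. The library randomised all eight P1ex-region intron nucleotides, the intron lying in the knt kanamycin-resistance gene, and plates were LB agar with or without 25 μg/mL kanamycin plus 100 μg/mL carbenicillin, 50 μM IPTG and 0.2% rhamnose. Pooled colonies were amplicon-sequenced on an Illumina HiSeq 2500, and fitness is the DiMSum error-weighted combination of wild-type-normalised replicate fold changes, kanamycin versus none.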

Sequence | self-splicing fitness (ln) (30 °C) | self-splicing fitness (ln) (37 °C)
UCUGAGCAAUAUUACGGCAG | -1.8 ± 0.097 | -0.992 ± 0.12
UCUGAGCAAUAUUACGGCGC | -3.06 ± 0.29 | -2.02 ± 0.32
UCUGAGCAAUAUUACGGUCU | -2.46 ± 0.21 | -2.96 ± 0.37
UCUGAGCAAUAUUACGGUGC | -4.39 ± 0.39 | -2.45 ± 0.25
UCUGAGCAAUAUUACGUAAG | -0.697 ± 0.11 | -0.863 ± 0.19
UCUGAGCAAUAUUACGUAUU | -4.55 ± 0.25 | -3.08 ± 0.25
UCUGAGCAAUAUUACGUCGU | -3.79 ± 0.29 | -1.91 ± 0.25
UCUUAGCAAUAUUACGACAC | -2.77 ± 0.46 | -1.65 ± 0.22
UCUUAGCAAUAUUACGACCA | -1.32 ± 0.48 | 
UCUUAGCAAUAUUACGACGC | -2.07 ± 0.28 | -1.02 ± 0.23
UCUUAGCAAUAUUACGACUC |  | -1.03 ± 0.5
UCUUAGCAAUAUUACGCACG | -1.56 ± 0.29 | -1.47 ± 0.34
UCUUAGCAAUAUUACGGCCA | -2.31 ± 0.38 | 
UCUUAGCAAUAUUACGGGGA | -1.1 ± 0.15 | -1 ± 0.16
UCUUAGCAAUAUUACGGUGG | -1.18 ± 0.13 | -1.2 ± 0.16
UCUUAGCAAUAUUACGUUCU |  | -2.75 ± 0.21
UGAAAGCAAUAUUACGAAAU | -3.67 ± 0.2 | -1.95 ± 0.18
UGAAAGCAAUAUUACGACAG | -0.875 ± 0.1 | -0.652 ± 0.13
UGAAAGCAAUAUUACGACAU | -1.26 ± 0.013 | -0.435 ± 0.032
UGAAAGCAAUAUUACGAGAA | -2.32 ± 0.23 | -1.22 ± 0.15

Sequence | self-splicing fitness (ln) (30 °C) | self-splicing fitness (ln) (37 °C)
UGAAAGCAAUAUUACGAGGC | -3.66 ± 0.28 | -2.36 ± 0.21
UGAAAGCAAUAUUACGAUAC | -2.87 ± 0.19 | -2.8 ± 0.33
UGAAAGCAAUAUUACGAUGA | -0.217 ± 0.088 | -0.415 ± 0.1
UGAAAGCAAUAUUACGAUGU | -3.04 ± 0.2 | -1.81 ± 0.21
UGAAAGCAAUAUUACGAUUU | -1.08 ± 0.06 | -0.463 ± 0.077
UGAAAGCAAUAUUACGCACG | -1.4 ± 0.11 | 0.111 ± 0.13
UGAAAGCAAUAUUACGCAGG | -2.65 ± 0.17 | -1.42 ± 0.2
UGAAAGCAAUAUUACGCCCU | -0.195 ± 0.11 | 0.295 ± 0.15
UGAAAGCAAUAUUACGGCUG | 0.281 ± 0.088 | 0.316 ± 0.11
UGAAAGCAAUAUUACGGGAU | -2.6 ± 0.18 | -3.48 ± 0.39
UGAAAGCAAUAUUACGGGUC |  | -2.71 ± 0.25
UGAAAGCAAUAUUACGUACA | -0.776 ± 0.044 | 0.0429 ± 0.066
UGAAAGCAAUAUUACGUACC | -1.36 ± 0.12 | -1.61 ± 0.17
UGAAAGCAAUAUUACGUAUA | -1.56 ± 0.13 | -1.28 ± 0.12
UGAAAGCAAUAUUACGUCCA | 0.114 ± 0.088 | -0.497 ± 0.11
UGAAAGCAAUAUUACGUGAG | -0.356 ± 0.06 | -0.158 ± 0.084
UGAAAGCAAUAUUACGUGCU | -2.79 ± 0.12 | -1.32 ± 0.12
UGAAAGCAAUAUUACGUUAC | -3.44 ± 0.25 | -2.35 ± 0.21
UGAAAGCAAUAUUACGUUUC | -3.14 ± 0.34 | -2.03 ± 0.28
